For experiment [1], the target named is T1, host protein UBE3A (Abcam), coupled to Luminex beads, Q05086.
T1 chain: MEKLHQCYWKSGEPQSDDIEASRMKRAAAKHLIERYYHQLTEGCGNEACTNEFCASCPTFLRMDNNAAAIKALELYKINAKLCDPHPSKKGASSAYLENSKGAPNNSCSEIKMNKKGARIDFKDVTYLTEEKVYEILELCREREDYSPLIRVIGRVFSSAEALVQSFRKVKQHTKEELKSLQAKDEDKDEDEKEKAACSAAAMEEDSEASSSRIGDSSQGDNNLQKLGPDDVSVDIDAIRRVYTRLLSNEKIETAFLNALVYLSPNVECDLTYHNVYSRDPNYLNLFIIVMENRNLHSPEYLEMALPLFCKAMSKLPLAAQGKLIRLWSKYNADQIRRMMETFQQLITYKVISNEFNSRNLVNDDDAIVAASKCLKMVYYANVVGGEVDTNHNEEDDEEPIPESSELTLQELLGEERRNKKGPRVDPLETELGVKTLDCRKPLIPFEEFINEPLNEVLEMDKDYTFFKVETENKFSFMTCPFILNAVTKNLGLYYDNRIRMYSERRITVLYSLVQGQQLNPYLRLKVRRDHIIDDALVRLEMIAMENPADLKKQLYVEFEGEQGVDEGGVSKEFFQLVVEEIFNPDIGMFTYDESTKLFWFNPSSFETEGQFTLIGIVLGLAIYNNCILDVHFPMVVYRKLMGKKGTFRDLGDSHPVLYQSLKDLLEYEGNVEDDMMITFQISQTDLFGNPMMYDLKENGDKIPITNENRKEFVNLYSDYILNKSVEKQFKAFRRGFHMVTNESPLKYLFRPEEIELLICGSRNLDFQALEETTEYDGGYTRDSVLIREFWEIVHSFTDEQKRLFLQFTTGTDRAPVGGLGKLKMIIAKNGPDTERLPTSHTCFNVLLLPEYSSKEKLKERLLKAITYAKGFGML
The experiment can be described thus: Luminex bead assay. Conditions: chain shown with the change; left panel; highest antibody concentration plotted, est. 2000 ng/ml; parent: est. 12; read off a plot.

Experiment [2] addresses T2, UBE3A on the ProtoArray human protein microarray (Homo sapiens, UniProt Q05086).
T2 construct: UBE3A, one of the 9,400 human proteins on the ProtoArray; source: bought: Invitrogen ProtoArray
The experiment can be described thus: peptide or protein array; ProtoArray (Invitrogen) with 9,400 human proteins, in duplicate; 2 µg/ml recombinant Ab, 1.5 hours at 4°C; detected with Alexa Fluor 647 anti-human IgG; compared with the control Ab 151K. Conditions: both partners purified.

For experiment [3], the target named is host proteins on the ProtoArray (9,400 human proteins) (human). The description is as above.
For another experiment, the target named is T3, Cen B (Homo sapiens (assumed), UniProt P07199).
T3 construct: Cen B autoantigen (centromere protein B) of the autoantigen ELISA
T3 sequence (P07199 whole entry): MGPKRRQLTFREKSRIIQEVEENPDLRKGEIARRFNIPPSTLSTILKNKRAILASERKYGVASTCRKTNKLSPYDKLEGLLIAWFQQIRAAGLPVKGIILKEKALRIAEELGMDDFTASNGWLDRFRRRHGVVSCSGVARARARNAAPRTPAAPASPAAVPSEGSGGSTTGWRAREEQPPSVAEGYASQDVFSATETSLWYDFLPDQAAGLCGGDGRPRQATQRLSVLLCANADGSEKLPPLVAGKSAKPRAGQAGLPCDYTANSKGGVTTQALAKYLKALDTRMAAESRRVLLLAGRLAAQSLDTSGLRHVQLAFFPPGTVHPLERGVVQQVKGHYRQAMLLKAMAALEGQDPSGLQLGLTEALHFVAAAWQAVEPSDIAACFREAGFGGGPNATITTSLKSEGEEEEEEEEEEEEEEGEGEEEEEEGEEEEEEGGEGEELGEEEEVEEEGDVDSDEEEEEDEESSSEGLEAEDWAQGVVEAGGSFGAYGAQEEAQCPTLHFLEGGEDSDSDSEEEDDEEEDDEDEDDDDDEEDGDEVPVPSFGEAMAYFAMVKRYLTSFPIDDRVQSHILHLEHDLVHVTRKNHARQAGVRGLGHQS
The experiment can be described thus: ELISA; autoantigen ELISA (legend: Athena autoantigen assay); antigens coated at 20 µg/ml overnight at 4°C; Abs in serial dilutions 45 min at RT; HRP anti-human IgG, TMB, 450 nm. The note with it: both partners purified.

In experiment [4] the target is T4, UBE3A on the ProtoArray human protein microarray, Q05086.
T4 chain: T1 chain
The experiment can be described thus: ProtoArray protein array. The note with it: chain shown with the change; red circle = UBE3A; x coordinate of the circle; parent: est. 45; read off a plot.

The target in experiment [5] is T5, host protein UBE3A (Abcam), coupled to Luminex beads (Homo sapiens, UniProt Q05086).
T5 construct: UBE3A, host protein; bought from Abcam (printed there as UBE34); also called UBE34; source: bought: Abcam
The experiment can be described thus: Luminex bead-based binding assay; UBE3A (Abcam) covalently linked to carboxylated beads; Abs serially diluted 1:3 from 2 µg/ml in PBS with 0.05% NaN3, 0.05% Tween 20, 1% BSA and 1% milk; 2 hours at room temperature; detected with PE goat anti-human IgG. The note with it: both partners purified.

Numbering of substitutions follows the chain as printed. In names and notes the source's numbering stands.

B1: IA2_E64K (antibody, V domains shown)
V domain 1: QVQLQESGPGVVKSSETLSLTCTVSGGSMGGTYWSWLRLSPGKGLEWIGYIFHTGHTNYNPSLKGRVSISVDTSEDQFSLRLRSVTAADTAVYFCASLPRGQLVNAYFRNWGRGTLVSVTA
V domain 2: SYELTQPPSVSVSPGQTATITCSGDKVASKNVCWYQVKPGQSPEVVMYENYKRPSGIPDRFSGSKSGSTATLTIRGTQATDEADYYCQVWDSFSTFVFGSGTQVTV
notes: as the heavy chain of m8 (IA2); as the light chain of m8 (IA2); recombinant IgG; also called the E64K mutant; IA2 E64K mutant; source: Expi293, transiently transfected, purified (Protein A agarose)
With B1, in experiment [1], the response came to 2200 gMFI. Further, the “fold higher binding than Abs without E64K” value in experiment [2] is ~10 fold. In addition, the polyreactivity index (PI) in experiment [3] worked out at 0.14. Besides, the binding result in the experiment with Cen B is given as “binds”.

B2: IA2_N60S (antibody, V domains shown)
V domain 1: B1 V domain 1 with N60S, K64E
V domain 2: B1 V domain 2
notes: as the heavy chain of m8 (IA2); as the light chain of m8 (IA2); recombinant IgG; also called the N60S mutant; IA2 N60S mutant; source: Expi293, transiently transfected, purified (Protein A agarose)
For B2, the results for the response in experiment [4] and in experiment [1] were 45 MFI and 8.5 gMFI, respectively. In addition, the binding result in experiment [5] is recorded as “no binding (tested: 2 µg/ml)”.

The record behind these values is publication PMC9720396, “Autoreactivity and broad neutralization of antibodies against HIV-1 are governed by distinct mutations: Implications for vaccine design strategies” (Frontiers in Immunology, 2022).
